Where “and” joins values, the source holds several entries; their conditions need not be identical. Identical values can stand only once.

This note sets out measurements from patent US20220144940A1 (VIELA BIO, published 2022).

Assay [1] addresses T1, recombinant human ILT7 protein (human, UniProt P59901 24-446, limits assumed).
T1 construct: Soluble recombinant protein used in ProteOn and BIAcore SPR; also called rILT7; Soluble Recombinant Human ILT7
In words: SPR on ProteOn.

Assay [2] concerns the target T2, HA-tagged human ILT7 on CT-550 cells (human, UniProt P59901 24-499). In words: cell-based or functional assay.
Assay [3] has as its target T3, cynomolgus ILT7 (cynomolgus, UniProt P59901 24-499 (human entry)). In words: cell-based or functional assay.
Assay [4] concerns the target T3, cynomolgus ILT7. In words: flow cytometry on CynoILT7 CT-125 cells. As to the method:
(§1) Binding of anti-ILT7 variants and isotype controls on human and cynomolgus ILT7 was assessed by flow cytometry analysis using CT-550 and cynoILT7 CT-125 cells respectively. CT-125 cells were used as control. Cells were resuspended in Blocking Buffer (PBS supplemented with 10% FBS) at a concentration of 5 million cells per mL and transferred into a round-bottom 96-well plates (BD Falcon™ Clear Microtest Plate, BD Biosciences) at 100 μL per well. Anti-ILT7 variants and control antibodies were added onto the cells for 30 min at 4° C. on a plate shaker. Cells were washed three times with PBS and resuspended in Blocking Buffer (100 μL/well). Human IgG binding on cell surface was detected using a secondary anti-human IgG antibody conjugated to DyLight 649 (1 in 1000 dilution). Cells were incubated in the dark for 30 min at 4° C. on a plate shaker. Cells were washed three times with PBS and surface fluorescence was acquired using LSRII Flow Cytometry System and FACSDiva Software (both from BD Biosciences).
In order to determine the binding EC₅₀ of the variants on cells expressing cynomolgus ILT7, the antibodies were screened for binding on CynoILT7 CT-125 cells by flow cytometry. […] The graph in FIG. 3 represents the mean results from two independent experiments, and the table in FIG. 3 show the average EC₅₀.
A general note: In flow cytometry, cells or beads pass a laser one at a time.

Assay [5] has as its target T2, HA-tagged human ILT7 on CT-550 cells. In words: flow cytometry on CT-550 cells. As to the method:
as §1
In order to determine the binding EC50 of ILT70019, ILT70028, ILT70052, ILT70076, ILT70080, ILT70083, ILT70089, ILT70100, ILT70137, ILT70142 and ILT70144 on cells expressing human ILT7, the candidates were screened for binding on CT-550 cells by flow cytometry. ILT70080 (EC₅₀=0.28 nM), ILT70083 (EC₅₀=0.37 nM), ILT70137 (EC₅₀=0.41 nM), ILT70144, ILT70142, ILT70052, and ILT70100 bound to human ILT7-expressing cells. […] The anti-ILT7 antibodies 7C7 (7C7 is described above in Example 1) and SBI33 (SBI33 refers to the anti-ILT7 antibody ILT7#33 provided in U.S. Published Application No. 2009/0280128) were used as positive controls.

Assay [6] has the same target. In words: flow cytometry (MFI) on human ILT7-expressing cells, left panel 'Human ILT7', table 'Ec50 (pM) Mean ± SD n=3'.
Assay [7] concerns the target T3, cynomolgus ILT7. In words: flow cytometry on cynomolgus ILT7-expressing cells, bottom panel, table 'Ec50 (pM)'. On the procedure: as §1
The target of assay [8] is T2, HA-tagged human ILT7 on CT-550 cells. In words: flow cytometry on human ILT7-expressing cells, left panel 'Human ILT7', table 'Ec50 (nM)'. As to the method: as §1
Assay [9] concerns the target T3, cynomolgus ILT7. In words: flow cytometry (MFI) on cynomolgus ILT7-expressing cells, right panel 'Cynomolgus ILT7', table 'Ec50 (pM) Mean ± SD n=3'.
For assay [10], the target named is T3, cynomolgus ILT7. In words: flow cytometry on cynomolgus ILT7-expressing cells, right panel 'Cyno ILT7', table 'Ec50 (nM)'. As to the method:
as §1

Assay [11] has as its target T3, cynomolgus ILT7. In words: flow cytometry (MFI) on cynomolgus ILT7-expressing cells. As to the method:
as §1

Assay [12] deals with T2, HA-tagged human ILT7 on CT-550 cells. In words: flow cytometry (MFI) on human ILT7-expressing cells. On the procedure:
as §1
Anfucosylated version of ILT70080.6 was generated. […] The tables in FIG. 15 provide the mean results of three independent binding experiments measuring mean fluorescence intensity (MFI).

Assay [13] concerns the target T3, cynomolgus ILT7. In words: flow cytometry on CynoILT7 CT-125 cells (cynomolgus ILT7), bottom panel, table 'Ec50 (pM)'. As to the method: as §1
Assay [14] has as its target T2, HA-tagged human ILT7 on CT-550 cells. In words: flow cytometry on CT-550 cells (human ILT7), top panel, table 'Ec50 (pM)'. As to the method:
as §1

T3 sequence (P59901 other isoform, or with tags, fused parts or gaps limits assumed): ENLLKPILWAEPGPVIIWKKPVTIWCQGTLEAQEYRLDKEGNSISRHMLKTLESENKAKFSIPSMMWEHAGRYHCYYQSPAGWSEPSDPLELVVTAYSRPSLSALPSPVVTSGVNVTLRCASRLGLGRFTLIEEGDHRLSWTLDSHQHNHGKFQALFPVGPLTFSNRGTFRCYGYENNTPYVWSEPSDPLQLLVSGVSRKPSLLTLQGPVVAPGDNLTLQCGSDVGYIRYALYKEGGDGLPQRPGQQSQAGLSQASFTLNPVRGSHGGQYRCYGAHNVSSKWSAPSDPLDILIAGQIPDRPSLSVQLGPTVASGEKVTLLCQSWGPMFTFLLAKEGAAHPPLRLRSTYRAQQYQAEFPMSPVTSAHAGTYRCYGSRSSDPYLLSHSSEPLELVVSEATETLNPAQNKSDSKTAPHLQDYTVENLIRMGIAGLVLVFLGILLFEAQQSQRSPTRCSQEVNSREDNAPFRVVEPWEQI
T2 sequence (P59901 24-499): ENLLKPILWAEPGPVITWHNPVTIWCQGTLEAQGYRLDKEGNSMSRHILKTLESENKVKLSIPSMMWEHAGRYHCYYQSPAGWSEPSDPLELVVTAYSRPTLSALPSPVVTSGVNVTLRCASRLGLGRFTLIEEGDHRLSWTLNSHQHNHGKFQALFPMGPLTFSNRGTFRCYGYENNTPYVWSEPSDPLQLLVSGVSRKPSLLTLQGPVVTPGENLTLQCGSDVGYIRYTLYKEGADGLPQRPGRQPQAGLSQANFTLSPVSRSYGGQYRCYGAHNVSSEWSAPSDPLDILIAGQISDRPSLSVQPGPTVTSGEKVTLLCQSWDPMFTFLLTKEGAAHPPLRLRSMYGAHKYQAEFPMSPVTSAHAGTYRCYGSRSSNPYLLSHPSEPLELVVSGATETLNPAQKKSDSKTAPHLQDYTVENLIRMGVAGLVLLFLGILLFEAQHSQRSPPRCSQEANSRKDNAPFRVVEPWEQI
T1 sequence (P59901 24-446 limits assumed): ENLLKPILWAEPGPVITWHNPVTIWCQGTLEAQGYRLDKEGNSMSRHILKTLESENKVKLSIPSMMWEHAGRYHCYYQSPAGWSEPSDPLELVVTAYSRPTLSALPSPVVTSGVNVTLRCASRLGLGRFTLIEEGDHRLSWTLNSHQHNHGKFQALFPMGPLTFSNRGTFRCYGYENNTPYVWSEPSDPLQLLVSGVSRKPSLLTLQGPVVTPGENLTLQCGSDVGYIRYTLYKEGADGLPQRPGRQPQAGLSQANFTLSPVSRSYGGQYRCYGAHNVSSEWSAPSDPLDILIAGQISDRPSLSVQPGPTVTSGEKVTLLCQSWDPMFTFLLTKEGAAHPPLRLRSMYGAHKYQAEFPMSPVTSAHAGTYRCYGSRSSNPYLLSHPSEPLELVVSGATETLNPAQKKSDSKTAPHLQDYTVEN

B1: 10D10 (antibody, V domains shown)
VH: EVQLVESGGGVVQPGRSLRLSCAASGFTFSTYPIEWVRQAPGQGLEWIGNFHLYNDDTKYNEKFKGRVTMTTDTSTSTVYMELSSLRSEDTAVYYCTRGDDYGMDYWGQGTLVTVSS
VL: NIQMTQSPSSLSASVGDRVTITCKASQNVRTAVAWYQQKPGKAPKRLIYLASNRHTGVPSRFSGSGSGTDFTLTISSLQSEDFATYYCLQHWNYPFTFGPGTKLEIK
notes: Humanized variant of SBI28 from a framework-shuffled Fab library
Consider B1, for which the “fold lower affinity than SBI28ch” value in assay [1] was determined as 3 fold.

B2: ILT70137 (antibody, V domains shown)
VH: QVQLQQSGAEVKKPGASVKVSCKASGYTFTSYGISWVRQAPGQGLEWMGWISAYNGNTNYAQKLQGRVTMTTDTSTSTAYMELRSLRSDDTAVYYCARNGLWGWDSDAFDIWGRGTLVTVSS
VL: QSALTQPASVSGSPGQSITISCTGTSSDVGGYNYVSWYQQHPGKAPKLMIYDVSNRPSGVSNRFSGSKSGNTASLTISGLQAEDEADYYCSSYTSSSTVVFGGGTKVTVL
The EC50 is the concentration at which the effect is half-maximal. Read a low EC50 as an effect from little substance. As for B2, the entries for the “ADCC EC50” value (in assay [2]; with cynomolgus ILT7 [3]) were 0.044 nM and 0.015 nM, respectively. Besides, the EC50 with cynomolgus ILT7 [4] is 1.4 nM; in assay [5], 0.41 nM.

B3: ILT70083 (antibody, V domains shown)
VH: EVQLLESGGGLVQPGGSLRLSCAASGFTFSSYAMSWVRQAPGKGLEWVSAISGSGGSTYYADSVKGWFTISRDNSKNTLYLQMNSLRAEDTAVYYCARRTYYYDSDGHSDVFDIWGRGTLVTVSS
VL: QSVVTQPPSVSAAPGQKVTISCSGSASNIGSNFVSWYQQLPGRAPKLLIYDNDKRDLGIPDRFSASISSTSAALAITGLQTEDEADYYCGTWDTSLTVGVFGGGTKLTVL
For the molecule B3, the “ADCC EC50” value is 0.089 nM and 0.094 nM in assay [2]; 0.433 nM and 0.36 nM with cynomolgus ILT7 [3]. Moreover, the EC50 is 1.37 nM with cynomolgus ILT7 [4]; 0.308 nM in assay [6]; 0.37 nM and 0.464 nM in [5]; 2.65 nM with cynomolgus ILT7 [7]; 0.25 nM in assay [8]; 1.28 nM with cynomolgus ILT7 [9].

B4: afucosylated ILT70083 (antibody, V domains shown)
VH: EVQLLESGGGLVQPGGSLRLSCAASGFTFSSYAMSWVRQAPGKGLEWVSAISGSGGSTYYADSVKGWFTISRDNSKNTLYLQMNSLRAEDTAVYYCARRTYYYDSDGHSDVFDIWGRGTLVTVSS
VL: QSVVTQPPSVSAAPGQKVTISCSGSASNIGSNFVSWYQQLPGRAPKLLIYDNDKRDLGIPDRFSASISSTSAALAITGLQTEDEADYYCGTWDTSLTVGVFGGGTKLTVL
modifications: afucosylated: lacks the α-1,6 fucose moiety on the N-glycan at Asn-297 of the heavy chain
Regarding B4, the “ADCC EC50” value in assay [2] stood at 0.0105 nM; with cynomolgus ILT7 [3], 0.057 nM. Further, the EC50 in [6] was determined as 0.211 nM; in assay [8], 0.38 nM; in the assay with cynomolgus ILT7 [9] it was 0.863 nM.

B5: afucosylated ILT70080 (antibody, V domains shown)
VH: QVQLVQSGAEVKAPGTSVKVSCKASGDSFRNYAVSWVRQAPGQGLEWMGAMMPSFGTREHSQQFNGRVTLSADESTSTAYLELSSLRYDDTAVYYCAGSRDYNAYHFWTGPPDFWGRGTLVTVSS
VL: SYELTQPPSVSVAPGKTAKISCGGDSVGSTSVHWYQQKPGQAPVMVMFYNSDRPSGIPERFSGSISGNTATLTISRVEAGDEADYYCQVWDTSSDHPEFGGGTKLTVL
modifications: afucosylated: lacks the α-1,6 fucose moiety on the N-glycan at Asn-297 of the heavy chain
notes: also called Afucosylated variant ITL70080
For B5, the “ADCC EC50” value in assay [2] stood at 0.001 nM; with cynomolgus ILT7 [3] it was 0.00051 nM. Moreover, the values for the EC50 (with cynomolgus ILT7 [10]; in [8]) were 0.4 nM and 0.34 nM, respectively.

B6: afucosylated ILT70080.6 (antibody, V domains shown)
VH: QVQLVQSGAEVKKPGSSVKVSCKASGDSFRNYAVSWVRQAPGQGLEWMGAMMPSFGTREHSQQFQGRVTLTADESTSTAYMELSSLRSEDTAVYYCAGSRDYNAYHFWTGPPDFWGRGTLVTVSS
VL: SYVLTQPPSVSVAPGKTARITCGGDSVGSTSVHWYQQKPGQAPVLVIYYNSDRPSGIPERFSGSNSGNTATLTISRVEAGDEADYYCQVWDTSSDHPEFGGGTKLTVL
modifications: afucosylated
notes: also called afucosylated ILT0080.6
Regarding B6, the “ADCC EC50” value stood at 0.00112 nM in [2] and 0.00044 nM in the assay with cynomolgus ILT7 [3]. Further, the values for the EC50 (in the assay with cynomolgus ILT7 [11]; in assay [12]) were 0.366 nM and 0.152 nM, respectively.

B7: ILT70080.6 (antibody, V domains shown)
VH: QVQLVQSGAEVKKPGSSVKVSCKASGDSFRNYAVSWVRQAPGQGLEWMGAMMPSFGTREHSQQFQGRVTLTADESTSTAYMELSSLRSEDTAVYYCAGSRDYNAYHFWTGPPDFWGRGTLVTVSS
VL: SYVLTQPPSVSVAPGKTARITCGGDSVGSTSVHWYQQKPGQAPVLVIYYNSDRPSGIPERFSGSNSGNTATLTISRVEAGDEADYYCQVWDTSSDHPEFGGGTKLTVL
notes: Engineered (germlined) variant of ILT70080, tested as IgG1
On to B7, for which the “ADCC EC50” value in assay [2] was < 0.0141 nM and 0.0069 nM. In addition, the EC50 with cynomolgus ILT7 [13] was found to be 0.428 nM; in [6], 0.155 nM; in assay [14], 0.287 nM; with cynomolgus ILT7 [9], 0.37 nM.
